B1: 1-phosphatidylinositol 4,5-bisphosphate phosphodiesterase gamma-1 (Bos taurus (Bovine)), P08487 (parent)
chain: MAGAASPCANGCGPSAPSDAEVVHLCRSLEVGTVMTLFYSKKSQRPERKTFQVKLETRQITWSRGADKIEGAIDIREIKEIRPGKTSRDFDRYQEDPAFRPDQSHCFVILYGMEFRLKTLSLQATSEDEVNMWIRGLTWLMEDTLQAATPLQIERWLRKQFYSVDRNREDRISAKDLKNMLSQVNYRVPNMRFLRERLTDLEQRTSDITYGQFAQLYRSLMYSAQKTMDLPFLEASALRAGERPELCRVSLPEFQQFLLEYQGELWAVDRLQVQEFMLSFLRDPLREIEEPYFFLDEFVTFLFSKENSIWNSQLDEVCPDTMNNPLSHYWISSSHNTYLTGDQFSSESSLEAYARCLRMGCRCIELDCWDGPDGMPVIYHGHTLTTKIKFSDVLHTIKEHAFVASEYPVILSIEDHCSIAQQRNMAQYFKKVLGDTLLTKPVDIAADGLPSPNQLKRKILIKHKKLAEGSAYEEVPTSVMYSENDISNSIKNGILYLEDPVNHEWYPHYFVLTSSKIYYSEETSSDQGNEDEEEPKEASGSTELHSNEKWFHGKLGAGRDGRHIAERLLTEYCIETGAPDGSFLVRESETFVGDYTLSFWRNGKVQHCRIHSRQDAGTPKFFLTDNLVFDSLYDLITHYQQVPLRCNEFEMRLSEPVPQTNAHESKEWYHASLTRAQAEHMLMRVPRDGAFLVRKRNEPNSYAISFRAEGKIKHCRVQQEGQTVMLGNSEFDSLVDLISYYEKHPLYRKMKLRYPINEEALEKIGTAEPDYGALYEGRNPGFYVEANPMPTFKCAVKALFDYKAQREDELTFTKSAIIQNVEKQEGGWWRGDYGGKKQLWFPSNYVEEMVSPAALEPEREHLDENSPLGDLLRGVLDVPACQIAVRPEGKNNRLFVFSISMASVAHWSLDVAADSQEELQDWVKKIREVAQTADARLTEGKMMERRKKIALELSELVVYCRPVPFDEEKIGTERACYRDMSSFPETKAEKYVNKAKGKKFLQYNRLQLSRIYPKGQRLDSSNYDPLPMWICGSQLVALNFQTPDKPMQMNQALFLAGGHCGYVLQPSVMRDEAFDPFDKSSLRGLEPCAICIEVLGARHLPKNGRGIVCPFVEIEVAGAEYDSIKQKTEFVVDNGLNPVWPAKPFHFQISNPEFAFLRFVVYEEDMFSDQNFLAQATFPVKGLKTGYRAVPLKNNYSEGLELASLLVKIDVFPAKQENGDLSPFGGASLRERSCDASGPLFHGRAREGSFEARYQQPFEDFRISQEHLADHFDGRDRRTPRRTRVNGDNRL

Variants of: B1
Conditions: with itk_mouse Itk

| effect of a mutation on the interaction | Variant |
| --- | --- |
| disrupting interaction | E709A;K711A |
| decreasing interaction | K749A;R753A |
| decreasing interaction | R748A;K751A |

Reference: IntAct's records for PubMed 19955438
